Data reported in the RNAGym collection of RNA variant scans (doi:10.7554/elife.80360).

B1: CPEB3 Ribozyme (parent)
chain: GGGGGCCACAGCAGAAGCGUUCACGUCGCGGCCCCUGUCAGAUUCUGGUGAAUCUGCGAAUUCUGCUGU

Variants of: B1
Assay: self-cleavage, relative activity (ratio to wild type); higher = more cleavage; co-transcriptional

Variant | self-cleavage
GGGAGCCACAGCAGAAGCGUUCACGUCGCGGCCCCUGUCAGAUUCUGGUGAAUCUGCGAAUUCGGCUGU | 0.672
GGGAGCCACAGCAGAAGCGUUCACGUCGCGGCCCCUGUCAGAUUCUGGUGAAUCUGCGAAUUCUGCUGC | 1.04
GGGCGCCACAGCAGAAGCGUUCACGUCGCGGCCCCUGUCAGAUUCUGGUGAAUCUGCGAAUUCUGCUGU | 0.69
GGGCGCCACCGCAGAAGCGUUCACGUCGCGGCCCCUGUCAGAUUCUGGUGAAUCUGCGAAUUCUGCUGU | 0.844
GGGCGCCACGGCAGAAGCGUUCACGUCGCGGCCCCUGUCAGAUUCUGGUGAAUCUGCGAAUUCUGCUGU | 0.748
GGGCGCCACAGCCGAAGCGUUCACGUCGCGGCCCCUGUCAGAUUCUGGUGAAUCUGCGAAUUCUGCUGU | 0.216
GGGCGCCACAGCAGUAGCGUUCACGUCGCGGCCCCUGUCAGAUUCUGGUGAAUCUGCGAAUUCUGCUGU | 0.0935
GGGCGCCACAGCAGACGCGUUCACGUCGCGGCCCCUGUCAGAUUCUGGUGAAUCUGCGAAUUCUGCUGU | 0.0339
GGGCGCCACAGCAGAUGCGUUCACGUCGCGGCCCCUGUCAGAUUCUGGUGAAUCUGCGAAUUCUGCUGU | 0.197
GGGCGCCACAGCAGAAGCGUUCUCGUCGCGGCCCCUGUCAGAUUCUGGUGAAUCUGCGAAUUCUGCUGU | 0.801
GGGCGCCACAGCAGAAGCGUUCACGUCGCGGCCCCUGUCAGGUUCUGGUGAAUCUGCGAAUUCUGCUGU | 0.667
GGGCGCCACAGCAGAAGCGUUCACGUCGCGGCCCCUGUCAGAUUCUGGUGAUUCUGCGAAUUCUGCUGU | 0.603
GGGCGCCACAGCAGAAGCGUUCACGUCGCGGCCCCUGUCAGAUUCUGGUGAAUCUGCGCAUUCUGCUGU | 0.187
GGGCGCCACAGCAGAAGCGUUCACGUCGCGGCCCCUGUCAGAUUCUGGUGAAUCUGCGACUUCUGCUGU | 0.188
GGGCGCCACAGCAGAAGCGUUCACGUCGCGGCCCCUGUCAGAUUCUGGUGAAUCUGCGAGUUCUGCUGU | 0.235
GGGCGUCACAGCAGAAGCGUUCACGUCGCGGCCCCUGUCAGAUUCUGGUGAAUCUGCGAAUUCUGCUGU | 0.132
GGGCGCGACAGCAGAAGCGUUCACGUCGCGGCCCCUGUCAGAUUCUGGUGAAUCUGCGAAUUCUGCUGU | 0.0794
GGGCGCCACAGCAGAAGCGUUGACGUCGCGGCCCCUGUCAGAUUCUGGUGAAUCUGCGAAUUCUGCUGU | 0.082
GGGCGCCACAGCAGAAGCGUUUACGUCGCGGCCCCUGUCAGAUUCUGGUGAAUCUGCGAAUUCUGCUGU | 0.074
GGGCGCCACAGCAGAAGCGUUCAUGUCGCGGCCCCUGUCAGAUUCUGGUGAAUCUGCGAAUUCUGCUGU | 0.124
GGGCGCCACAGCAGAAGCGUUCACGUAGCGGCCCCUGUCAGAUUCUGGUGAAUCUGCGAAUUCUGCUGU | 0.0979
GGGCGCCACAGCAGAAGCGUUCACGUGGCGGCCCCUGUCAGAUUCUGGUGAAUCUGCGAAUUCUGCUGU | 0.108
GGGCGCCACAGCAGAAGCGUUCACGUCGUGGCCCCUGUCAGAUUCUGGUGAAUCUGCGAAUUCUGCUGU | 0.131
GGGCGCCACAGCAGAAGCGUUCACGUCGCGGACCCUGUCAGAUUCUGGUGAAUCUGCGAAUUCUGCUGU | 0.188
GGGCGCCACAGCAGAAGCGUUCACGUCGCGGGCCCUGUCAGAUUCUGGUGAAUCUGCGAAUUCUGCUGU | 0.0983
GGGCGCCACAGCAGAAGCGUUCACGUCGCGGCACCUGUCAGAUUCUGGUGAAUCUGCGAAUUCUGCUGU | 0.989

Variant | self-cleavage
GGGCGCCACAGCAGAAGCGUUCACGUCGCGGCGCCUGUCAGAUUCUGGUGAAUCUGCGAAUUCUGCUGU | 0.98
GGGCGCCACAGCAGAAGCGUUCACGUCGCGGCUCCUGUCAGAUUCUGGUGAAUCUGCGAAUUCUGCUGU | 0.804
GGGCGCCACAGCAGAAGCGUUCACGUCGCGGCCACUGUCAGAUUCUGGUGAAUCUGCGAAUUCUGCUGU | 0.16
GGGCGCCACAGCAGAAGCGUUCACGUCGCGGCCUCUGUCAGAUUCUGGUGAAUCUGCGAAUUCUGCUGU | 0.383
GGGCGCCACAGCAGAAGCGUUCACGUCGCGGCCCUUGUCAGAUUCUGGUGAAUCUGCGAAUUCUGCUGU | 0.0739
GGGCGCCACAGCAGAAGCGUUCACGUCGCGGCCCCUGUGAGAUUCUGGUGAAUCUGCGAAUUCUGCUGU | 0.298
GGGCGCCACAGCAGAAGCGUUCACGUCGCGGCCCCUGUCAGAUUCUGGUGAAUCUGGGAAUUCUGCUGU | 0.15
GGGCGCCACAGCAGAAGCGUUCACGUCGCGGCCCCUGUCAGAUUCUGGUGAAUCUGUGAAUUCUGCUGU | 0.234
GGGCGCCACAGCAGAAGCGUUCACGUCGCGGCCCCUGUCAGAUUCUGGUGAAUCUGCGAAUUGUGCUGU | 0.211
GGGCACCACAGCAGAAGCGUUCACGUCGCGGCCCCUGUCAGAUUCUGGUGAAUCUGCGAAUUCUGCUGU | 0.0843
GGGCGCCACAGCAGAAACGUUCACGUCGCGGCCCCUGUCAGAUUCUGGUGAAUCUGCGAAUUCUGCUGU | 0.0822
GGGCGCCACAGCAGAAUCGUUCACGUCGCGGCCCCUGUCAGAUUCUGGUGAAUCUGCGAAUUCUGCUGU | 0.0737
GGGCGCCACAGCAGAAGCCUUCACGUCGCGGCCCCUGUCAGAUUCUGGUGAAUCUGCGAAUUCUGCUGU | 0.104
GGGCGCCACAGCAGAAGCUUUCACGUCGCGGCCCCUGUCAGAUUCUGGUGAAUCUGCGAAUUCUGCUGU | 0.103
GGGCGCCACAGCAGAAGCGUUCACGUCGCCGCCCCUGUCAGAUUCUGGUGAAUCUGCGAAUUCUGCUGU | 0.0792
GGGCGCCACAGCAGAAGCGUUCACGUCGCGACCCCUGUCAGAUUCUGGUGAAUCUGCGAAUUCUGCUGU | 0.179
GGGCGCCACAGCAGAAGCGUUCACGUCGCGUCCCCUGUCAGAUUCUGGUGAAUCUGCGAAUUCUGCUGU | 0.179
GGGCGCCACAGCAGAAGCGUUCACGUCGCGGCCCCUGUCAUAUUCUGGUGAAUCUGCGAAUUCUGCUGU | 0.159
GGGCGCCACAGCAGAAGCGUUCACGUCGCGGCCCCUGUCAGAUUCUCGUGAAUCUGCGAAUUCUGCUGU | 0.718
GGGCGCCACAGCAGAAGCGUUCACGUCGCGGCCCCUGUCAGAUUCUGAUGAAUCUGCGAAUUCUGCUGU | 0.731
GGGCGCCACAGCAGAAGCGUUCACGUCGCGGCCCCUGUCAGAUUCUGGUUAAUCUGCGAAUUCUGCUGU | 0.637
GGGCGCCACAGCAGAAGCGUUCACGUCGCGGCCCCUGUCAGAUUCUGGUGAAUCUUCGAAUUCUGCUGU | 0.339
GGGCGCCACAGCAGAAGCGUUCACGUCGCGGCCCCUGUCAGAUUCUGGUGAAUCUGCGAAUUCUGCUAU | 0.976
GGGCGCCACAGCAGAAGCGUUCACGUCGCGGCCCCUGUCAGAUUCUGGUGAAUCUGCGAAUUCUGCUCU | 0.941
GGGCGCCACAGCAGAAGCGUUCACGCCGCGGCCCCUGUCAGAUUCUGGUGAAUCUGCGAAUUCUGCUGU | 0.472
GGGCGCCACAGCAGAAGCGUUCACGUCGCGGCCCCUGCCAGAUUCUGGUGAAUCUGCGAAUUCUGCUGU | 0.302

Variant | self-cleavage
GGGCGCCACAGCAGAAGCGUUCACGUCGCGGCCCCUGUCAGACUCUGGUGAAUCUGCGAAUUCUGCUGU | 0.406
GGGCGCCACAGCAGAAGCGUUCACGUCGCGGCCCCUGUCAGAGUCUGGUGAAUCUGCGAAUUCUGCUGU | 0.26
GGGCGCCACAGCAGAAGCGUUCACGUCGCGGCCCCUGUCAGAUACUGGUGAAUCUGCGAAUUCUGCUGU | 0.373
GGGCGCCACAGCAGAAGCGUUCACGUCGCGGCCCCUGUCAGAUCCUGGUGAAUCUGCGAAUUCUGCUGU | 0.47
GGGCGCCACAGCAGAAGCGUUCACGUCGCGGCCCCUGUCAGAUUCAGGUGAAUCUGCGAAUUCUGCUGU | 0.663
GGGCGCCACAGCAGAAGCGUUCACGUCGCGGCCCCUGUCAGAUUCGGGUGAAUCUGCGAAUUCUGCUGU | 0.601
GGGCGCCACAGCAGAAGCGUUCACGUCGCGGCCCCUGUCAGAUUCUGGAGAAUCUGCGAAUUCUGCUGU | 0.657
GGGCGCCACAGCAGAAGCGUUCACGUCGCGGCCCCUGUCAGAUUCUGGCGAAUCUGCGAAUUCUGCUGU | 0.548
GGGCGCCACAGCAGAAGCGUUCACGUCGCGGCCCCUGUCAGAUUCUGGGGAAUCUGCGAAUUCUGCUGU | 0.341
GGGCGCCACAGCAGAAGCGUUCACGUCGCGGCCCCUGUCAGAUUCUGGUGAAGCUGCGAAUUCUGCUGU | 0.142
GGGCGCCACAGCAGAAGCGUUCACGUCGCGGCCCCUGUCAGAUUCUGGUGAAUCGGCGAAUUCUGCUGU | 0.231
GGGCGCCACAGCAGAAGCGUUCACGUCGCGGCCCCUGUCAGAUUCUGGUGAAUCUGCGAAAUCUGCUGU | 0.147
GGGCGCCACAGCAGAAGCGUUCACGUCGCGGCCCCUGUCAGAUUCUGGUGAAUCUGCGAAUACUGCUGU | 0.157
GGGCGCCACAGCAGAAGCGUUCACGUCGCGGCCCCUGUCAGAUUCUGGUGAAUCUGCGAAUUCGGCUGU | 0.355
GGGCGCCACAGCAGAAGCGUUCACGUCGCGGCCCCUGUCAGAUUCUGGUGAAUCUGCGAAUUCUGCUGC | 0.958
GGGUGCCACAGCAGAAGCGUUCACGUCGCGGCCCCUGUCAGAUUCUGGUGAAUCUGCGAAUUCUGCUGU | 0.806
GGGUGCCCCAGCAGAAGCGUUCACGUCGCGGCCCCUGUCAGAUUCUGGUGAAUCUGCGAAUUCUGCUGU | 0.691
GGGUGCCGCAGCAGAAGCGUUCACGUCGCGGCCCCUGUCAGAUUCUGGUGAAUCUGCGAAUUCUGCUGU | 0.512
GGGUGCCACCGCAGAAGCGUUCACGUCGCGGCCCCUGUCAGAUUCUGGUGAAUCUGCGAAUUCUGCUGU | 0.905
GGGUGCCACGGCAGAAGCGUUCACGUCGCGGCCCCUGUCAGAUUCUGGUGAAUCUGCGAAUUCUGCUGU | 0.784
GGGUGCCACAGCGGAAGCGUUCACGUCGCGGCCCCUGUCAGAUUCUGGUGAAUCUGCGAAUUCUGCUGU | 0.649
GGGUGCCACAGCAGCAGCGUUCACGUCGCGGCCCCUGUCAGAUUCUGGUGAAUCUGCGAAUUCUGCUGU | 0.138
GGGUGCCACAGCAGGAGCGUUCACGUCGCGGCCCCUGUCAGAUUCUGGUGAAUCUGCGAAUUCUGCUGU | 0.678
GGGUGCCACAGCAGACGCGUUCACGUCGCGGCCCCUGUCAGAUUCUGGUGAAUCUGCGAAUUCUGCUGU | 0.0815
GGGUGCCACAGCAGAGGCGUUCACGUCGCGGCCCCUGUCAGAUUCUGGUGAAUCUGCGAAUUCUGCUGU | 0.444
GGGUGCCACAGCAGAAGCGUUCCCGUCGCGGCCCCUGUCAGAUUCUGGUGAAUCUGCGAAUUCUGCUGU | 0.573
